Bounds are passed on as bounds.

This series relates to MBP-CPEB. In words: EMSA. To be noted: 10 mM HEPES-KOH pH 7.9, 50 mM KCl, 1 mM MgCl2, 0.1 mM ZnCl2, 0.1% NP-40, 1 mM DTT, 2 ug yeast tRNA, 2 ug BSA, 12 U RNaseOUT, 10 uL, 15 fmol RNA, room …. On the technique in general: A gel shift assay detects complexes by their altered migration in electrophoresis.

Regarding “c-myc 3'UTR pA2 wild type (cCPE + ncCPE1 + ncCPE2)”, the equilibrium dissociation constant (Kd) (two CPEB molecules bound (second shift)) stood at 279 nM. Substance “c-myc pA2 cCPE only (ncCPE1 and ncCPE2 mutated)” had a dissociation constant Kd of 212 nM. Regarding “c-myc pA2 ncCPE1 only (cCPE and ncCPE2 mutated)”, the Kd is 890 nM. Substance c-myc pA2 ncCPE1/2 (cCPE mutated) gave an equilibrium dissociation constant (Kd) (no second CPEB binding) of 891 nM. “c-myc pA2 ncCPE2 only (cCPE and ncCPE1 mutated)”: the Kd (low affinity, Kd lower bound) was above 1000 nM.

The Kd is the equilibrium constant for the complex coming apart.
